The values below come from PMC8934265.

For data set [1], the target named is T1, NFYA-1 (T08D10.1), MBP fusion;NFYB-1, MBP fusion;NFYC-1, MBP fusion (Caenorhabditis elegans;Caenorhabditis …, UniProt G5EEG1;O17286;O17072 1-482;1-403;1-232, ||).
T1 sequence 1: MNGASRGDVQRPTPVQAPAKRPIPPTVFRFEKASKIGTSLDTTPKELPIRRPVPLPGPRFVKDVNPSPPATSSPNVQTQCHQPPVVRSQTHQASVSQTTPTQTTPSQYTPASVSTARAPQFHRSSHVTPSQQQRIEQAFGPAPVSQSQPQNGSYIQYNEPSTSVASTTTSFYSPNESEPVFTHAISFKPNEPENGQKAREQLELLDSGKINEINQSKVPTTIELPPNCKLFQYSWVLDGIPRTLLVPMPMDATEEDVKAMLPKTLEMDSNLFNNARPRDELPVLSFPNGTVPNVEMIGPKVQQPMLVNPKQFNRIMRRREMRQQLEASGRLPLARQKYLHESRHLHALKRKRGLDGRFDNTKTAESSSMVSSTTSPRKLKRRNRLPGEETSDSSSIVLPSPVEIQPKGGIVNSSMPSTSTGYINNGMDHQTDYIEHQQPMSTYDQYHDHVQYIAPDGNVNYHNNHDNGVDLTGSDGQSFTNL
T1 sequence 2: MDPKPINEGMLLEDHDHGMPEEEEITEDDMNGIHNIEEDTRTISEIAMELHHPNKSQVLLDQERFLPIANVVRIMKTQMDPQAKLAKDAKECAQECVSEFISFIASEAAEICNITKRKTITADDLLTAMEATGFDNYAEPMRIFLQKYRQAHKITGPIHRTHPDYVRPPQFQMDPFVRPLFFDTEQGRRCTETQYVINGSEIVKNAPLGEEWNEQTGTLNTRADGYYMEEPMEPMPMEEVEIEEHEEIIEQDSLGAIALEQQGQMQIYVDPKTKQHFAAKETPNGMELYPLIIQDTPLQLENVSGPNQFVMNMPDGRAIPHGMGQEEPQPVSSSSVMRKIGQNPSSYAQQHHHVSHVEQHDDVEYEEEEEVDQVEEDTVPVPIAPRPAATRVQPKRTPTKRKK
T1 sequence 3: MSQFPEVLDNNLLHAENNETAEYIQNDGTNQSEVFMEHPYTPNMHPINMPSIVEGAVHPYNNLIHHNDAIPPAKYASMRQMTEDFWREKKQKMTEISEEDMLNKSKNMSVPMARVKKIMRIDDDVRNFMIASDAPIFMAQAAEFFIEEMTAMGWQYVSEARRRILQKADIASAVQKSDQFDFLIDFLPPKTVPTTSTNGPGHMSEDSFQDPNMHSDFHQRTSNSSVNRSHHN
Nature of the data set: EMSA. (In general: In EMSA bound probe runs differently from free probe, usually more slowly.)

Data set [2] deals with T1, NFYA-1 (T08D10.1), MBP fusion;NFYB-1, …. Nature of the data set: competition.
Data set [3] has the same target. Nature of the data set: competition. The source holds these as a separate data set.

Where a chain is given by its changes, count along the chain named.

B1: CCAAT box probe (dsDNA)
DNA 1: AGTTGTAGGCCTCTGCTTCCTGACCAATCTACAGAATAGGCTCCGCCTTC
DNA 2: AGTTGAAGGCGGAGCCTATTCTGTAGATTGGTCAGGAAGCAGAGGCCTAC
In the case of B1, the binding result in data set [1] is reported as “binds”.

B2: CCAAT box wild-type competitor (+CAAT) (dsDNA)
DNA 1: B1 DNA 1
DNA 2: B1 DNA 2
Consider B2, for which the binding result in data set [2] is listed as “binds”.

B3: CCAAT box mutant competitor (+mut) (dsDNA)
DNA 1: B1 DNA 1 with C25A, A26T, A27G
DNA 2: B1 DNA 2 with T28C, T29A, G30T
Take B3: the binding result in data set [3] is “no binding”.
